Test results published in the supplement of paper PMC11316812.
± gives the standard deviation of the averaged measurements.

What was measured:
[1] = test system: MCF7; assay: percentage of EdU-negative (G0-arrested) nuclei per well, 72 h; higher = more G0 arrest; details: reference: sequence is the full UniProt precursor, the tested protein was the secreted form or ectodomain
[2] = test system: hTERT-HMEC; assay: as above; details: reference: sequence is the full UniProt precursor, the tested protein was the secreted form or ectodomain
[3] = protein concentration 0.0242225 µM
[4] = protein concentration 0.242225 µM
[5] = protein concentration 0.0165714 µM
[6] = protein concentration 0.165714 µM
[7] = protein concentration 0.0191429 µM
[8] = protein concentration 0.191429 µM
[9] = protein concentration 0.00625 µM
[10] = protein concentration 0.0625 µM
[11] = protein concentration 0.0357143 µM
[12] = protein concentration 0.357143 µM
[13] = protein concentration 0.00525 µM
[14] = protein concentration 0.0525 µM
[15] = protein concentration 0.0225 µM
[16] = protein concentration 0.012015 µM
[17] = protein concentration 0.12015 µM
[18] = protein concentration 0.0111429 µM
[19] = protein concentration 0.111429 µM
[20] = protein concentration 0.00725 µM
[21] = protein concentration 0.0725 µM
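Note: secreted proteins added to cultured cells, EdU pulse at the end, nuclei found by Hoechst imaging, EdU status from nuclear versus surrounding ring intensity ratio, PBS as neutral control.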

Sequence of Q9BZP6 (chain, as listed by the source): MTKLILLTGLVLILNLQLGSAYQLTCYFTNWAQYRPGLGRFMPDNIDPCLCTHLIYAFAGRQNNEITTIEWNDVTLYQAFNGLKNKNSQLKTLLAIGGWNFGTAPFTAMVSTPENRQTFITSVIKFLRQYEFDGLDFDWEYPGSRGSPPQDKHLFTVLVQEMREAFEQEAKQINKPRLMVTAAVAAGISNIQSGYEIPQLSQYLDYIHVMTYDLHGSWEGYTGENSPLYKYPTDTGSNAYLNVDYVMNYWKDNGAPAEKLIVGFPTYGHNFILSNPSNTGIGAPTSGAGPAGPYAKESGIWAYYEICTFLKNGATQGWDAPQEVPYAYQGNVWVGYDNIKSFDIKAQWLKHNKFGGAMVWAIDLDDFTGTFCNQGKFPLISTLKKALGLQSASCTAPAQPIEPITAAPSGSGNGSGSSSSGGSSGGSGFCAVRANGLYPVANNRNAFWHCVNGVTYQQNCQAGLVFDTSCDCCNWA
Sequence of Q9UBP4 (chain, as listed by the source): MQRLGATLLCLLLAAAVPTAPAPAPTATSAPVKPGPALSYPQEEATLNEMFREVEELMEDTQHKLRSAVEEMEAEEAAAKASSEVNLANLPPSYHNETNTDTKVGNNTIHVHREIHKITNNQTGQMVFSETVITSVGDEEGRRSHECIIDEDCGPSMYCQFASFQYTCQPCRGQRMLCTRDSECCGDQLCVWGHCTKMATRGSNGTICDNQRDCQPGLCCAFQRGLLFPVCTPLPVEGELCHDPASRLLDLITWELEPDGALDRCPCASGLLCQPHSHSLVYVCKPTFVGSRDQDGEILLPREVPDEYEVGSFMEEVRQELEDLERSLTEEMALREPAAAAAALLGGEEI
Sequence of Q9BXJ3 (chain, as listed by the source): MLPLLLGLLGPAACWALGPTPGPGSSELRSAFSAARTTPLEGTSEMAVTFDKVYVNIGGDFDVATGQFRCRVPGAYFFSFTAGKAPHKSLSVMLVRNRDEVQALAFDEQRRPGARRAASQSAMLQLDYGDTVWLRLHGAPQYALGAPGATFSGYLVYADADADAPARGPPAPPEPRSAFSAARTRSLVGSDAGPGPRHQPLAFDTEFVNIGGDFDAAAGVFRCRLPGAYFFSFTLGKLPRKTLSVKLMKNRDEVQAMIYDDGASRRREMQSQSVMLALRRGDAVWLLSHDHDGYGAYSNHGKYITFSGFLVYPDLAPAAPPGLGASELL
Sequence of Q9ULB1 (chain, as listed by the source): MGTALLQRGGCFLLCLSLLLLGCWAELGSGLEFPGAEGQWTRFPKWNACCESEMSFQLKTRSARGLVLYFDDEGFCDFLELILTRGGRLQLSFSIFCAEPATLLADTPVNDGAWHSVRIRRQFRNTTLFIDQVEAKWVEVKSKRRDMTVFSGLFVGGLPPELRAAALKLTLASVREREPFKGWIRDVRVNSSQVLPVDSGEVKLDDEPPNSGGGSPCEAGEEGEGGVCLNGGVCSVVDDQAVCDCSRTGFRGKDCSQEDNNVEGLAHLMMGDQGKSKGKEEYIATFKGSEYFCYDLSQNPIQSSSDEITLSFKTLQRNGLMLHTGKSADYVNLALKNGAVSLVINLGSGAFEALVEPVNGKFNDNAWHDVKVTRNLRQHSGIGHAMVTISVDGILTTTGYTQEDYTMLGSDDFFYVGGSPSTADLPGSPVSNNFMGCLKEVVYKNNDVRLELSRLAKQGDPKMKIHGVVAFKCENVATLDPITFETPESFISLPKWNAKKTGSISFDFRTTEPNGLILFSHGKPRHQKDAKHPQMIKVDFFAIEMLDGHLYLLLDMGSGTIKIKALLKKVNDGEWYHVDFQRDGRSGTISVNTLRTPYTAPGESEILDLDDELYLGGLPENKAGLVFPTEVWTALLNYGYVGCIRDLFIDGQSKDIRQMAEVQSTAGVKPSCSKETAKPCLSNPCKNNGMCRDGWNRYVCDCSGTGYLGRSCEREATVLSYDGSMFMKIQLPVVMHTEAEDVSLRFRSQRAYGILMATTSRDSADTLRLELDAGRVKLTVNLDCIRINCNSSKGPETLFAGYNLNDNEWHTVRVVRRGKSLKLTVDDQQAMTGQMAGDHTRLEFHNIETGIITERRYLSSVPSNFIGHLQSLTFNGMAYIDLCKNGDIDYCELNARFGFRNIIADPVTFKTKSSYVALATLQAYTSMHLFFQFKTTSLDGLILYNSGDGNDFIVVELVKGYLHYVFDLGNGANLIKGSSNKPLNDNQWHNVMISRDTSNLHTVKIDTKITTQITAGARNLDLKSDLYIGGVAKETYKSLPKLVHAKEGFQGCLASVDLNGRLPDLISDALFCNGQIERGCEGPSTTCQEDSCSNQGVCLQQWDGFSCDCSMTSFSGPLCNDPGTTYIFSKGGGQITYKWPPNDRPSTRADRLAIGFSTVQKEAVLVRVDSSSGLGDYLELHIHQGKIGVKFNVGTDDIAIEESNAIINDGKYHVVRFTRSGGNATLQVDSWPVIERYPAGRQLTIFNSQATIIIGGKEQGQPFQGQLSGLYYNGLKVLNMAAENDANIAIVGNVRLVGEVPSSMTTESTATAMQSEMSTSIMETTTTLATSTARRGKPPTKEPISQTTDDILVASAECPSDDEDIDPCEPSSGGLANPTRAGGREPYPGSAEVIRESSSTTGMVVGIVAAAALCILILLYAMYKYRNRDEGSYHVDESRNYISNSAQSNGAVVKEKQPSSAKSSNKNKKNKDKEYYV
Sequence of Q8WXD2 (chain, as listed by the source): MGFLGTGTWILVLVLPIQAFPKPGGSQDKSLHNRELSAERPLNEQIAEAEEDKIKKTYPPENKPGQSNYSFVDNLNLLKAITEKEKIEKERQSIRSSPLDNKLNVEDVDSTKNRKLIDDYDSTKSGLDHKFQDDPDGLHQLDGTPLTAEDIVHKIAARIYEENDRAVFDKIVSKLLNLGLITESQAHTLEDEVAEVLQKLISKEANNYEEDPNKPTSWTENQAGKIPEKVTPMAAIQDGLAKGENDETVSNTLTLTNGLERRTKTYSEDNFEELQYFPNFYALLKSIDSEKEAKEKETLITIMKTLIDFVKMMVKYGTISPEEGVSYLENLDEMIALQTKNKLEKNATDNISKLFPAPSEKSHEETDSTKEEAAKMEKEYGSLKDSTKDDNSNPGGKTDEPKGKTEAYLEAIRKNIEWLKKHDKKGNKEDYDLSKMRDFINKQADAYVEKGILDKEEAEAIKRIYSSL

## Q8NBS9
[1]; [3]
  percentage of EdU-negative: 27.1 ± 0.28%
[1]; [4]
  percentage of EdU-negative: 27.4 ± 0.94%
[2]; [3]
  percentage of EdU-negative: 4.77 ± 0.42%
[2]; [4]
  percentage of EdU-negative: 8.37 ± 0.54%

## Q8WXD2
[1]; [5]
  percentage of EdU-negative: 25.6 ± 3.6%
[1]; [6]
  percentage of EdU-negative: 29.2 ± 1.7%
[2]; [5]
  percentage of EdU-negative: 5.59 ± 0.58%
[2]; [6]
  percentage of EdU-negative: 6.19 ± 0.24%

## Q9BXJ3
[1]; [7]
  percentage of EdU-negative: 27.3 ± 3.6%
[1]; [8]
  percentage of EdU-negative: 23.8 ± 1.1%
[2]; [7]
  percentage of EdU-negative: 5.17 ± 0.79%
[2]; [8]
  percentage of EdU-negative: 4.77 ± 0.24%

## Q9BXP8
[1]; [9]
  percentage of EdU-negative: 26.6 ± 1.2%
[1]; [10]
  percentage of EdU-negative: 28.7 ± 1.2%
[2]; [9]
  percentage of EdU-negative: 5.11 ± 0.6%
[2]; [10]
  percentage of EdU-negative: 6.47 ± 0.67%

## Q9BYZ8
[1]; protein concentration 0.02 µM
  percentage of EdU-negative: 24.8 ± 0.7%
[1]; protein concentration 0.2 µM
  percentage of EdU-negative: 29.6 ± 2.5%
[2]; protein concentration 0.02 µM
  percentage of EdU-negative: 5.55 ± 0.64%
[2]; protein concentration 0.2 µM
  percentage of EdU-negative: 19.9 ± 4.5%

## Q9BZP6
[1]; [11]
  percentage of EdU-negative: 23.1 ± 1.2%
[1]; [12]
  percentage of EdU-negative: 27.6 ± 0.63%
[2]; [11]
  percentage of EdU-negative: 5.02 ± 0.9%
[2]; [12]
  percentage of EdU-negative: 6.66 ± 0.26%

## Q9BZZ2
[1]; [13]
  percentage of EdU-negative: 26.9 ± 2.3%
[1]; [14]
  percentage of EdU-negative: 31.1 ± 2.4%
[2]; [13]
  percentage of EdU-negative: 4.58 ± 0.46%
[2]; [14]
  percentage of EdU-negative: 21.5 ± 2.5%

## Q9HBE5
[1]; [11]
  percentage of EdU-negative: 24.6 ± 3%
[1]; [12]
  percentage of EdU-negative: 26.38 ± 0.26%
[2]; [11]
  percentage of EdU-negative: 4.85 ± 0.64%
[2]; [12]
  percentage of EdU-negative: 5.88 ± 0.38%

## Q9NP99
[1]; [15]
  percentage of EdU-negative: 25.2 ± 3.3%
[1]; protein concentration 0.225 µM
  percentage of EdU-negative: 25.7 ± 1.1%
[2]; [15]
  percentage of EdU-negative: 4.69 ± 0.52%
[2]; protein concentration 0.225 µM
  percentage of EdU-negative: 5.446 ± 0.054%

## Q9NQS3
[1]; [15]
  percentage of EdU-negative: 25.9 ± 3.8%
[1]; protein concentration 0.225 µM
  percentage of EdU-negative: 26.1 ± 2.9%
[2]; [15]
  percentage of EdU-negative: 4.83 ± 1.2%
[2]; protein concentration 0.225 µM
  percentage of EdU-negative: 4.728 ± 0.0098%

## Q9UBP4
[1]; [16]
  percentage of EdU-negative: 24.3 ± 2.6%
[1]; [17]
  percentage of EdU-negative: 25.52 ± 0.066%
[2]; [16]
  percentage of EdU-negative: 5.79 ± 1.3%
[2]; [17]
  percentage of EdU-negative: 6.35 ± 0.93%

## Q9ULB1
[1]; [18]
  percentage of EdU-negative: 25.5 ± 2.5%
[1]; [19]
  percentage of EdU-negative: 26.3 ± 2.4%
[2]; [18]
  percentage of EdU-negative: 5.3 ± 0.36%
[2]; [19]
  percentage of EdU-negative: 9.04 ± 0.11%

## Q9ULL4
[1]; [20]
  percentage of EdU-negative: 23.6 ± 1.5%
[1]; [21]
  percentage of EdU-negative: 27.8 ± 0.59%
[2]; [20]
  percentage of EdU-negative: 5.08 ± 0.93%
[2]; [21]
  percentage of EdU-negative: 5.74 ± 0.25%

## Q9Y6N7
[1]; [15]
  percentage of EdU-negative: 27 ± 0.88%
[1]; protein concentration 0.225 µM
  percentage of EdU-negative: 25.6 ± 1.4%
[2]; [15]
  percentage of EdU-negative: 5.33 ± 0.86%
[2]; protein concentration 0.225 µM
  percentage of EdU-negative: 5.81 ± 0.72%
